Reference: article doi:10.1101/2023.10.29.564595, “The N-terminal region of DNMT3A combines multiple chromatin reading motifs to guide recruitment”

Target: DNMT3A1 1-427 R181A/R183A (human, UniProt Q9Y6K1 1-427, R181A;R183A)
Assay: EMSA; only marginally affected; EMSA: 15 mM HEPES pH 7.5, 75 mM NaCl, 0.05% Triton X-100, 0.05 mg/mL BSA, 10% glycerol, 1 mM DTT, 0.5 mg/mL salmon sperm DNA (nucleosomes), 2.4 nM tracer, 1 h on ice; full-length complex: 17.5 mM HEPES pH 8, 150 mM NaCl, 1.5 mM MgCl2, 2.5% glycerol, 1 mM DTT, 0.1 mg/mL BSA, on ice
Details: protein: recombinant; tags: His-MBP; label: 5' 6-FAM; blunt

Chain of DNMT3A1 1-427 R181A/R183A (Q9Y6K1 1-427 R181A/R183A): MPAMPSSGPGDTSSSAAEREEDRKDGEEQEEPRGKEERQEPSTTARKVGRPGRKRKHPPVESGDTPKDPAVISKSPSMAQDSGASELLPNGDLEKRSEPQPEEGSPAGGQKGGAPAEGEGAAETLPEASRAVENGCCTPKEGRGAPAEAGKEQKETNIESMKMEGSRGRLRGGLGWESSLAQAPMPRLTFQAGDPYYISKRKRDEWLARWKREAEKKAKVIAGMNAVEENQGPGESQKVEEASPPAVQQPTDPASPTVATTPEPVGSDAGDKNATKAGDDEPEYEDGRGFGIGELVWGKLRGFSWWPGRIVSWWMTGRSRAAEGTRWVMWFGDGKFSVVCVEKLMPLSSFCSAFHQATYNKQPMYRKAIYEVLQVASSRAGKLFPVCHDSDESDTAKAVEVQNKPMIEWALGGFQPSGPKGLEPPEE

B1: free 175 bp Widom601 DNA (dsDNA)
DNA 1: TATACGCGGCCGCCCTGGAGAATCCCGGTGCCGAGGCCGCTCAATTGGTCGTAGACAGCTCTAGCACCGCTTAAACGCACGTACGCGCTGTCCCCCGCGTTTTAACCGCCAAGGGGATTACTCCCTAGTCTCCAGGCACGTGTCAGATATATACATCCTGTGCAATGTGTTCCAT
DNA 2: ATGGAACACATTGCACAGGATGTATATATCTGACACGTGCCTGGAGACTAGGGAGTAATCCCCTTGGCGGTTAAAACGCGGGGGACAGCGCGTACGTGCGTTTAAGCGGTGCTAGAGCTGTCTACGACCAATTGAGCGGCCTCGGCACCGGGATTCTCCAGGGCGGCCGCGTATA
B1: binds.
